Here are results for 32 sequences from the supplement of paper PMC9170038.

The test system of the data set is MS2 coat protein. Kind of data set: apparent KD of MS2 coat protein; designed switch direction (-1 OFF switch, 1 ON switch): -1; higher = weaker reporter binding. In a few lines: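 RNA switches sharing common flanks were transcribed by stalled E. coli RNA polymerase on Illumina chips. A doubling series of SNAP-549-labelled MS2 coat protein, from 0.7 or 1.5 nM to 3 µM, was applied in Tris-HCl pH 7.5 buffer with KCl, MgCl2, BSA, DTT, tRNA and Tween-20. Each step lasted 0.8–1.5 h at the bottom of the series and 10–20 min at the top. Normalised cluster fluorescence was curve-fitted, giving apparent KD as the per-design median over clusters.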

The mark [1] stands for this setting: Eterna round: R95, input ligand: microRNA oligo, concentration not stated.
Setting [2] is: input ligand: microRNA oligo, concentration not stated.
Where [3] appears, read: Eterna round: R95, input ligand: FMN 200 uM.
[4] abbreviates: Eterna round: R95, input ligand: none.

Consider “GUGUAGAUAGGAUAUGCGUGAGUCUAGCGAAGCUAGGCUCUACAUGAGGAUCACCCAUGUAGAAGGGUCUACAC [Dot plot directed A v14] (puzzle: Exclusion 2)”, for which the “apparent KD of MS2 coat protein” value under setting [1] came out at 17.3 nM.
As to “GUGAAACAUGAGGAUCACCCAUGUGAGGAUAUGUUUUAGUACUGCUGACAGUACAUCUAUAGAAGGCACAAUGG [JL-ex1-02] (puzzle: Exclusion 1)”, under setting [1], the “apparent KD of MS2 coat protein” value is 33.7 nM.
For “UACCUGAGGCAAAGCUUUAGGCUUACAUGAGGAUCACCCAUGUAGGAUAUGGUAGGCUUUGCUUACCAGAAGGACAUGGAAAUU [Mat - Exclusion NG 3 - Mod of JL - D22] (Eterna round: R96, puzzle: Exclusion NG 3)”, the “apparent KD of MS2 coat protein” value came out at 64.3 nM (input ligand: FMN 200 uM), 18 nM under setting [2] and 19.1 nM (input ligand: none).
Taken in the same sequence, the figures for “CUGCCAACGAAGCUUGUCGACAUGAGGAUCACCCAUGUUUCGCAAAGUGUUACAAAAAAAUAUCUGUAUGAAAAUGU [JR_Sensorv2_yov_Sub1319] (Eterna round: R96, puzzle: Sensor v2, turn-off variant)” were 11.8 nM, 10.2 nM and 15.9 nM.
The matching figures for “AGGACAUGAGGAUCACCCAUGUAGUGAGGUGUAUCCGAAGACGAGGAUAUACAGAGGAAAUAUCUGUAGAAGGUGUAAUAAAAU [Istediso] (Eterna round: R96, puzzle: Exclusion NG 3)”: 725 nM, 247 nM and 299 nM.
For the sequence “GUUGUUACUGAGGAUAUUAUUUUAUUCGAUUGAUAAGAAGGCAGUACAUGAGGAUCACCCAUGUGGGUAGUUAG [Polaris21] (Eterna round: R97, puzzle: Exclusion 6)”, the “apparent KD of MS2 coat protein” value runs as follows: (input ligand: FMN 200 uM) 270 nM; (input ligand: none) 338 nM.
Taken in the same sequence, the figures for “UUUAAGUAAGGAUAUGCGAGCCACGGAAAUAAAACGUGGAGGUAGAAGGUACAUGAGGAUCACCCAUGUAAAAC [Mod of Anonveat 23 - Jieux - Exclusion 4] (Eterna round: R97, puzzle: Exclusion 4)” were 21.8 nM and 23.1 nM.
“GUGGCACAUGAGGAUCACCCAUGUCAGGAUAUCGUGUGUUUUUUUUCGGCCGCGCGCGCGAGAAGGGACGUCUU (puzzle: Exclusion 1)”: the “apparent KD of MS2 coat protein” value under setting [1] came out at 97.8 nM.
“UUUUUCAGGCCAGAUCCUCACAUGAGGAUCACCCAUGUGCUCGUCUGUUUUCGCUCUUUCUUUUUUUUGUUUGUGCU [Level Boss var2-19] (puzzle: Sensor v3, turn-off variant 1)”: the “apparent KD of MS2 coat protein” value is, setting by setting: under setting [3], 181 nM; under setting [1], 27.5 nM; under setting [4], 312 nM.
Taken in the same sequence, the figures for “GAGAAAUUAUAGGAUAUCGUAAGGAUAAUUUAACGAGAAGGAUGAACAUGAGGAUCACCCAUGUGGUAUCAUGG [JL-ex6-3.12] (puzzle: Exclusion 6)” were 191 nM, 184 nM and 465 nM.
“GUAACAUGCUGGUGAUCAUACAUGAGGAUCACCCAUGUAACAAGCUUUUUGCUCGUCUUAUAAGAUUACUAGUAUGU [Stov1/10-A3] (Eterna round: R97, puzzle: Sensor, turn-off variant 1)”: the “apparent KD of MS2 coat protein” value was found to be 22 nM (input ligand: FMN 200 uM) and 24.3 nM (input ligand: none).
The matching figures for “GAUCAACAAUCGAGCGGAUACAUGAGGAUCACCCAUGUCCGUAGUCGGGUAAAUAACAAGCUUUUUUCGCCGUCCCU [Eternabot (Original) Solution 42] (Eterna round: R97, puzzle: Sensor, turn-off variant 1)”: 15.4 nM and 14.9 nM.
As for “AAUAACAGAGGAUAUACUGUUUUAUGUGUUUGUUGUUUUAAACAUGAGGAUCACCCAUGUAGAAGGCUGAAUAA [JMF 19] (puzzle: Exclusion 2)”, the “apparent KD of MS2 coat protein” value under setting [1] came to 18.4 nM.
With “ACAUGAGGAUCACCCAUGUUUGGCUGGUUUUCUCCGGCUGUCGAGGAUAUAGUCCGGUAUCCGCGCUAGAAGGUGAGGGUUGGC [Aenatbe mod 4] (Eterna round: R96, puzzle: Exclusion NG 3)”, the “apparent KD of MS2 coat protein” value was 22.5 nM (input ligand: FMN 200 uM), 14.2 nM under setting [2] and 22.8 nM (input ligand: none).
Consider “ACAUGAGGAUCACCCAUGUCCGGCUGGUCUGUUCCGGCUGUCGAGGAUAUAGUCCGGUGUUCGCGCUAGAAGGCGGGAGCUGGA [Aenatbe mod 51] (Eterna round: R96, puzzle: Exclusion NG 3)”, for which the “apparent KD of MS2 coat protein” value is, setting by setting: (input ligand: FMN 200 uM) 67.5 nM; under setting [2], 34.5 nM; (input ligand: none) 46.2 nM.
The matching figures for “AAGAAGAAACAAGCUUUUUGCACGUCAUAUAGUGACGCAACAUGAGGAUCACCCAUGUAUAGGGUGGGAAAGGAUAG [JR_SV3TOV2_Sub047] (Eterna round: R96, puzzle: Sensor v3, turn-off variant 2)”: 669 nM, 352 nM and 826 nM.
Take “UAUUAGUAAGGAUAUCCCACGUAGGACUUCGGUCCUACGUGGGAGAAGGUACAUGAGGAUCACCCAUGUCUAUU [Mod of Fisker 13 - Jieux - Exclusion 4] (Eterna round: R97, puzzle: Exclusion 4)”: the “apparent KD of MS2 coat protein” value (input ligand: FMN 200 uM) was determined as 16.6 nM and the “apparent KD of MS2 coat protein” value (input ligand: none) was determined as 14.9 nM.
As for “CAGUACUGAGGAUAUACAUGAGGAUCACCCAUGUGCCUAAGCUAGGAUACUAGCAUUAGUAGAAGGCAGUACUG [Fiskers Ex 3 828 mod 15] (puzzle: Exclusion 3)”, under setting [1], the “apparent KD of MS2 coat protein” value is 13.6 nM.
“GCUGCAAGAGGAUAUACAUGAGGAUCACCCAUGUGGGAUCGCGUUCUGGAUCAGGACUGUAGAAGGUUUGUGCG [Eternabot (L1) Solution 63] (Eterna round: R97, puzzle: Exclusion 3)”: the “apparent KD of MS2 coat protein” value reads like this: (input ligand: FMN 200 uM) 286 nM; (input ligand: none) 91.3 nM.
Regarding “UUCAUGUGAGGAUAUGUGUACUGCUUUCUGUUUAGAUGUACACAGAAGGCACAUGAGGAUCACCCAUGUAGUAC [Ex4 - 3 - 31] (puzzle: Exclusion 4)”, the “apparent KD of MS2 coat protein” value under setting [1] was 33.8 nM.
“GAUAGAGAGCAGGAUAUCAUAGAAAUGUAUGAAUGAGAAGGGCUCACAUGAGGAUCACCCAUGUGGUCCUAGAU [JL Dibiri mod 19] (puzzle: Exclusion 6)”: the “apparent KD of MS2 coat protein” value came to 135 nM under setting [3], 22.4 nM under setting [1] and 21.1 nM under setting [4].
For the sequence “UUUUUACAUGAGGAUCACCCAUGUCAGGAUAUUCUUAUAUUUUAUUAUUUUAUUUUUUGAAGAAGGGACUAUUA [My solution] (puzzle: Exclusion 1)”, under setting [1], the “apparent KD of MS2 coat protein” value was found to be 99.4 nM.
Regarding “CAAUUCCGAGGAUAUACAUGAGGAUCACCCAUGUCGGGCCUCAGCGUUUAGCGCCUAAGUAGAAGGUGGGUUUC [JL Riri mod 4] (puzzle: Exclusion 3)”, under setting [1], the “apparent KD of MS2 coat protein” value came out at 37.1 nM.
Regarding “UGAUCUACUGAGGAUAUUAUAUCACCCGACUGAUAAGAAGGCAGUACAUGAGGAUCACCCAUGUGGGUAGCCAU [Polaris9] (Eterna round: R97, puzzle: Exclusion 6)”, the “apparent KD of MS2 coat protein” value reads like this: (input ligand: FMN 200 uM) 50.8 nM; (input ligand: none) 34.7 nM.
Taken in the same sequence, the figures for “AAAUAGGGAGGAUAUCCAAUAUAUGACAUGAGGAUCACCCAUGUUUCCACUCGUACCUCCGGAGAAGGCCCAUAAA [Ex5 #3] (Eterna round: R97, puzzle: Exclusion 5)” were 20.9 nM and 21.8 nM.
Taken in the same sequence, the figures for “CAGCUGAAUGUCAGGAUAUCUAGAGCUGCGGCUCUAGAGAAGGGACAUGAGGAUCACCCAUGUCACUCCAGCUG [BmEx4/3-B3] (Eterna round: R97, puzzle: Brourd's mod of Exclusion 4)” were 21.3 nM and 16.4 nM.
In the case of “UUUAUGUCAGGAUAUACAUGAGGAUCACCCAUGUAUAUCUUAAAGUAUACAUGGGAAUGUAGAAGGGACCUCCU [Omei Ex3 Pseudoloop 5] (Eterna round: R97, puzzle: Exclusion 3)”, the “apparent KD of MS2 coat protein” value reads like this: (input ligand: FMN 200 uM) 43.8 nM; (input ligand: none) 35 nM.
In the case of “GAAAAGGUAGGAUAUACGAAAAGAAAGGGUAGAGAAGAAACACAUGAGGAUCACCCAUGUAGAAGGACCAAAAG [salish99_ex2_r3_098] (puzzle: Exclusion 2)”, the “apparent KD of MS2 coat protein” value runs as follows: under setting [3], 96.4 nM; under setting [1], 26.4 nM; under setting [4], 28.4 nM.
For “UUAAUUAAUUGCGCAAGAUCACAUGAGGAUCACCCAUGUAUAUAGGAUAUCAGCUCGUGUAGAGCUGAGAAGGAUAUACAGCGC [ExNG3/3-A3] (Eterna round: R96, puzzle: Exclusion NG 3)”, the “apparent KD of MS2 coat protein” value runs as follows: (input ligand: FMN 200 uM) 886 nM; under setting [2], 419 nM; (input ligand: none) 495 nM.
Take “CACCGUUACAGAGGAUAUCUUACAUGAGGAUCACCCAUGUAAUAAAUGAGAAUUUCGGAUGUAUGAGAGAAGGCUGGAAUCGGC [Ostricism 38 - Jieux - Exclusion NG 2] (Eterna round: R96, puzzle: Exclusion NG 2)”: the “apparent KD of MS2 coat protein” value under setting [2] came out at 16.3 nM.
With “UUCCUACAUGAGGAUCACCCAUGUCAGGAUAUAUAAAACGCUCAGAUAAAAGAGCAAGAUAGAAGGGAUUGGGA [Aquis] (Eterna round: R97, puzzle: Exclusion 1)”, the “apparent KD of MS2 coat protein” value was determined as 14.5 nM (input ligand: FMN 200 uM) and 15.1 nM (input ligand: none).
On to “CUGAGCUGAGGAUAUACAUGAGGAUCACCCAUGUGUUCCAGCUUGGGUACAGGCACAUGUAGAAGGCAGUUCGG [Mod of JL - ex3-3.35 Brourd mod] (puzzle: Exclusion 3)”, for which, under setting [1], the “apparent KD of MS2 coat protein” value is 62 nM.
